Consider two molecules from patent US20240309087A1 (SHANGHAI JUNSHI BIOSCIENCES, published 2024).

The target in assay [1] is T1, hCD112R mFC recombinant protein (human; murine, UniProt Q6DKI7 41-160).
T1 construct: range 41-160; expressed in 293E cells; also called hCD112R ECD mFC; hCD112R-ECD-mFC; not shown: murine IgG2a Fc domain (MX2-mFc vector)
T1 sequence (looked up): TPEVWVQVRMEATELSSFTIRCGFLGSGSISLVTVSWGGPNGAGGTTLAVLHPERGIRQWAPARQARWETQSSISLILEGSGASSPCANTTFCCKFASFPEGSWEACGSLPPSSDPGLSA
As to the kind of experiment: ELISA, coated hCD112R-ECD-mFC; EC50 COM701/EC50 antibody. Put shortly:
(§1)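 Plates coated with hCD112R-ECD-mFC at 1.5 μg/mL; humanized antibodies titrated from 1 μg/mL, 2.5-fold, 12 points. Bound antibody detected with HRP anti-human IgG Fc and TMB, read at 420/620 nm; EC50 from 4PL fit, COM701 and anti-KLH hu-IgG4 as controls.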
In general terms: ELISA stands for enzyme-linked immunosorbent assay.

In assay [2] the target is T2, human CD112R on Jurkat CD112R effector cells (human, UniProt Q6DKI7 1-326).
T2 sequence (looked up): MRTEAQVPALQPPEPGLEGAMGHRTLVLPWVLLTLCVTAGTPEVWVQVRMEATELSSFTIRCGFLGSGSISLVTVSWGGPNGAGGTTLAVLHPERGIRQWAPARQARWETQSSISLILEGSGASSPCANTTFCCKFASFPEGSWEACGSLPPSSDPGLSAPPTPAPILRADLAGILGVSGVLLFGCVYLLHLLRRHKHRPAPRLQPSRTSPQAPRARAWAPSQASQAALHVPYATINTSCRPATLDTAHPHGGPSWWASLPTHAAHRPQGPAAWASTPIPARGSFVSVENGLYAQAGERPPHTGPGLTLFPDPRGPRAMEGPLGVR
As to the kind of experiment: cell-based or functional assay.

The target of assay [3] is T1, hCD112R mFC recombinant protein. As to the kind of experiment: FACS competition, hCD112R mFc on CHO CD112 cells. In outline:
(§2)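 CHO cells overexpressing human CD112 were co-incubated 30 min at 4 °C with hCD112R mFc (5 μg/mL) and humanized anti-CD112R antibodies (from 100 μg/mL, 3-fold, 10 points). Bound fusion protein detected with anti-mouse IgG Fc secondary by flow cytometry; IC50 from four-parameter fit of MFI. COM701 served as positive control, anti-KLH hu-IgG4 as negative.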

In another assay the target is T3, mouse CD112R antigen (mouse).
T3 construct: bought
As to the kind of experiment: ELISA on coated mouse CD112R, OD 450 nm, fit of a nearly flat curve; unit from the axis. On the procedure:
Plates were coated with a recombinant cynomolgus monkey CD112R antigen (purchased from Acrobiosystems, Cat No. PVG-C5259) and a mouse CD112R antigen (purchased from Acrobiosystems, Cat No. PVG-M5257) at fixed concentrations, respectively, and the humanized anti-CD112R antibodies diluted in a gradient (initial concentration: 1 μg/mL, 2.5-fold gradient dilution, 12 concentration gradients in total) were added to bind to the antigens, HRP-conjugated mouse anti-human IgG4 Fc (Southern Biotech. 9200-05) was subjected to a 5000-fold dilution and used as detection antibody for detection. The color development was performed with 0.1 mg/mL TMB, and finally stopped with 2 M hydrochloric acid. […] EC₅₀ was obtained by fitting with a four-parameter logistic regression (4PL) model.

The target of assay [4] is T1, hCD112R mFC recombinant protein. As to the kind of experiment: FACS competition, hCD112R mFc on CHO CD112 cells; IC50 COM701/IC50 antibody. Put shortly: as §2
In assay [5] the target is T4, recombinant cynomolgus monkey CD112R antigen (cynomolgus monkey, UniProt A0A2K5WVV8 1-322).
T4 construct: bought
T4 sequence: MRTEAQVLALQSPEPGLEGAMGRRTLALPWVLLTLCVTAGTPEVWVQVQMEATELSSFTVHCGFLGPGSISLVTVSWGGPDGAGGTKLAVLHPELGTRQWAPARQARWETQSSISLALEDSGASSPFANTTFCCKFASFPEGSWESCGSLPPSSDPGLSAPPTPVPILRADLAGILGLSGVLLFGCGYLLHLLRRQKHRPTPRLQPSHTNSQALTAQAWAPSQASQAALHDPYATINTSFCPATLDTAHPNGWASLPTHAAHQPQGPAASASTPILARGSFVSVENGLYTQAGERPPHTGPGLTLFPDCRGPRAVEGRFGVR
As to the kind of experiment: ELISA, coated cynomolgus monkey CD112R. On the procedure: Plates were coated with a recombinant cynomolgus monkey CD112R antigen (purchased from Acrobiosystems, Cat No. PVG-C5259) and a mouse CD112R antigen (purchased from Acrobiosystems, Cat No. PVG-M5257) at fixed concentrations, respectively, and the humanized anti-CD112R antibodies diluted in a gradient (initial concentration: 1 μg/mL, 2.5-fold gradient dilution, 12 concentration gradients in total) were added to bind to the antigens, HRP-conjugated mouse anti-human IgG4 Fc (Southern Biotech. 9200-05) was subjected to a 5000-fold dilution and used as detection antibody for detection. The color development was performed with 0.1 mg/mL TMB, and finally stopped with 2 M hydrochloric acid. The plates were read at 420 nm/620 nm. EC₅₀ was obtained by fitting with a four-parameter logistic regression (4PL) model.

Assay [6] deals with T1, hCD112R mFC recombinant protein. As to the kind of experiment: ELISA, coated hCD112R-ECD-mFC. In outline: as §1
Assay [7] addresses T5, human CD112R on CHO-CD112R cells (human, UniProt Q6DKI7 41-326).
T5 construct: whole, on cells; also called hCD112R; PVRIG
T5 sequence (looked up): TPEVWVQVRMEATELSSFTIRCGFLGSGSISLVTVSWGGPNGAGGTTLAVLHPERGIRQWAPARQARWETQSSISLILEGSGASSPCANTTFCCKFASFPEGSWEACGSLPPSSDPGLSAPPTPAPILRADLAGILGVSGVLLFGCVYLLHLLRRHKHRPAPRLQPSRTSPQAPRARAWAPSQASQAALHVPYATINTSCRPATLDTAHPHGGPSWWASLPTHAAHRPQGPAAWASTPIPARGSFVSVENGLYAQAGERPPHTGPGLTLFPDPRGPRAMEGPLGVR
As to the kind of experiment: FACS on CHO-CD112R cells; EC50 Ref/EC50 antibody. Put shortly: (§3)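 CHO cells stably expressing human CD112R (Met1-Arg326) incubated 30 min at 4 °C with antibody, top 50 μg/mL, 5-fold dilutions, 12 points. Fluorescent secondary antibody added, 30 min at 4 °C. MFI by flow cytometry; EC50 from fitted dose-response curves, with reference anti-CD112R and anti-KLH IgG4 controls.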

Assay [8] concerns the target T5, human CD112R on CHO-CD112R cells. As to the kind of experiment: FACS on CHO-CD112R cells. In outline:
as §3

Assay [9] deals with T4, recombinant cynomolgus monkey CD112R …. As to the kind of experiment: ELISA on coated recombinant cynomolgus monkey CD112R, OD 450 nm, ambiguous fit; unit from the axis. On the procedure: A plate was coated with a recombinant cynomolgus monkey CD112R antigen (Acrobiosystems, Cat No. PVG-C5259) at a fixed concentration, and the chimeric anti-CD112R antibodies diluted in a gradient (initial concentration: 1 μg/mL, 2.5-fold gradient dilution, 12 concentration gradients in total) were added to bind to the antigen. Horseradish peroxidase (HRP)-conjugated mouse anti-human IgG4 Fc (Southern Biotech, 9200-05) was subjected to a 5000-fold dilution and used as a detection antibody for detection. The color development was performed with 0.1 mg/mL TMB, and finally stopped with 2 M hydrochloric acid. […] EC₅₀ was obtained by fitting with a four-parameter logistic regression (4PL) model.

B1: Hu52 (antibody, human IgG4 S228P, kappa)
heavy: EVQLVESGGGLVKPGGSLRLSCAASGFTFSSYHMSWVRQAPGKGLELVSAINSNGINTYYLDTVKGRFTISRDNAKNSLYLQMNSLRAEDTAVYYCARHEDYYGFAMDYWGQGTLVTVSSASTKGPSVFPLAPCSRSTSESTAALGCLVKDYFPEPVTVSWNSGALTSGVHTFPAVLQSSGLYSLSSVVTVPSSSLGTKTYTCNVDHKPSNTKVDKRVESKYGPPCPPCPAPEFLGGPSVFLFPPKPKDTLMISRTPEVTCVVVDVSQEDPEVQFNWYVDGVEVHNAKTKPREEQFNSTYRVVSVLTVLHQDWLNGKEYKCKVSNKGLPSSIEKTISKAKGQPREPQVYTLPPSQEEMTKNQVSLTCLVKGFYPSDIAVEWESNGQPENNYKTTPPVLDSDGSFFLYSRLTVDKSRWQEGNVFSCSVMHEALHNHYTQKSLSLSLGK
light: DIVMTQSPDSLAVSLGERATINCKASQSVSNDVAWYQQKPGQPPKLLIYYVSHRFTGVPDRFSGSGSGTDFTLTISSLQAEDVAVYFCHQAYRSPWTFGQGTKLEIKRTVAAPSVFIFPPSDEQLKSGTASVVCLLNNFYPREAKVQWKVDNALQSGNSQESVTEQDSKDSTYSLSSTLTLSKADYEKHKVYACEVTHQGLSSPVTKSFNRGEC
notes: humanized; 7C2VH1 + 6A10VL2
The IC50 is the midpoint of a concentration-inhibition curve. One may read the EC50 as the concentration giving half of the maximal effect. In the case of B1, the “Relative activity (%)” value in assay [1] is 161%; in [4] it was 95.5%. The “EC50, CD112R/CD112 reporter” value in [2] was 0.018 µg/mL. The “Relative activity (%), EC50 COM701/EC50 antibody” value in [2] is 415%. Further, the concentration for half-maximal inhibition (IC50) in assay [3] was 2.52 µg/mL. The EC50 worked out at 1870 µg/mL in the assay with mouse CD112R antigen, 0.00309 µg/mL in assay [5] and 0.00568 µg/mL in assay [6].

B2: Chi-18 (antibody, V domains shown)
VH: EVQLQQSGAELVKPGASVKISCKASGYTFTDYNMDWVKQSHGKSLEWIGDIHPKYDRTSYNQNFKGKATLTVDKSSRTAYMELRSLTSEDTAVYFCVRINDFDEGFAMDYWGQGTSVTVSS
VL: QIVLTQSPAIMSVSPGEKVTMTCSATSSINYMHWYQQKSGTSPKRWIYDTSKLASGVPARFSGSGSGTSYSLTISNMEAEDAATYYCQQWTSNPLTFGAGTKLELK
notes: chimeric
As for B2, the “Relative activity (%)” value in assay [7] amounted to 572%. Also, the 50% effective concentration (EC50) in assay [8] was 0.294 µg/mL; in assay [9], roughly 27600 µg/mL.
